The record followed here is doi:10.1101/2025.11.19.689067 (bioRxiv, 2025).

Holding throughout (test): bead-based binding assay (Luminex)
The target in experiment [1] is DENV2 NS1 wing-Halotag (residues 30-174) (dengue virus serotype 2).
In experiment [2] the target is DENV2 NS1 β-ladder-Halotag (residues 178-352) (dengue virus serotype 2).
For experiment [3], the target named is T1, DENV2 NS1 (recombinant, biotinylated, on Luminex beads) (dengue virus serotype 2, UniProt P29990 776-1127).
T1 sequence: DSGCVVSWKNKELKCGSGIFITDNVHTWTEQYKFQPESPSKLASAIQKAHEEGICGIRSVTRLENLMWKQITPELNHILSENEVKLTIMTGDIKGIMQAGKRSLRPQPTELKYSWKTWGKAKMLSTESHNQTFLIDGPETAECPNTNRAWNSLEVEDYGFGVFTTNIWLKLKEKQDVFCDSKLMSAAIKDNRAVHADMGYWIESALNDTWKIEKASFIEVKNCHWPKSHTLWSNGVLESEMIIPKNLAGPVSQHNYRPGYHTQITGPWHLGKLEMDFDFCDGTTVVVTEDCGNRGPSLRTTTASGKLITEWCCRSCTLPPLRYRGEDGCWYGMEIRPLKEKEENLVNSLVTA
To be noted: both partners purified.

Regarding “EFNB1 RBD-Fc fusion protein (from UniProt P98172 28-164)”, the results for the fold relative binding (EFNB1 Fc over Gluc Fc) in experiment [1] and in experiment [2] were 50 fold and 15 fold, respectively.

B1: EFNB1 RBD-Fc fusion protein (Fc fusion)
chain: LAKNLEPVSWSSLNPKFLSGKGLVIYPKIGDKLDIICPRAEAGRPYEYYKLYLVRPEQAAACSTVLDPNVLVTCNRPEQEIRFTIKFQEFSPNYMGLEFKKHHDYYITSTSNGSLEGLENREGGVCRTRTMKIIMKV
Consider B1, for which the “fold binding over the Gluc-Fc negative control” value in experiment [3] was determined as 40 fold.
